{"source": "the RNAGym collection of RNA variant scans (doi:10.1021/acssynbio.7b00057)", "parents": {"B1": {"name": "Pistol ribozyme (parent)", "chain": "GGGUCGUUGUUCCAUAAUCGCGUGGAUAUGGCACGCAAGUUUCUACCGGGCACCGUAAAUGUCCGACUGGAGCCGUUCGGGCGGCUAUAAACAGACCUCAGGCCCGAAGCGUGGCGGCACCUGCCGCCGGUGGUAAAAAAGAUCGGAAGAGCACACGUCU"}}}
{"variants_of": "B1", "test": "aptazyme ON/OFF ratio, guanine; higher = stronger switching; co-transcriptional cleavage with and without guanine"}
{"variant": "GGGUCGGACACGCAUAAUCGCGUGGAUAUGGCACGCAAGUUUCUACCGGGCACCGUAAAUGUCCGACUGGAGCCGUUCGGGCGGCUAUAAACAGACCUCAGGCCCGAAGCGUGGCGGCACCUGCCGCCGGUGGUAAAAAAGAUCGGAAGAGCACACGUCU", "aptazyme ON/OFF ratio": 1.05}
{"variant": "GGGUCGGACACUCAUAAUCGCGUGGAUAUGGCACGCAAGUUUCUACCGGGCACCGUAAAUGUCCGACUGGAGCCGUUCGGGCGGCUAUAAACAGACCUCAGGCCCGAAGCGUGGCGGCACCUGCCGCCGGUGGUAAAAAAGAUCGGAAGAGCACACGUCU", "aptazyme ON/OFF ratio": 1.04}
{"variant": "GGGUCGGACAGAAAUAAUCGCGUGGAUAUGGCACGCAAGUUUCUACCGGGCACCGUAAAUGUCCGACUGGAGCCGUUCGGGCGGCUAUAAACAGACCUCAGGCCCGAAGCGUGGCGGCACCUGCCGCCGGUGGUAAAAAAGAUCGGAAGAGCACACGUCU", "aptazyme ON/OFF ratio": 1.05}
{"variant": "GGGUCGGACAGAUAUAAUCGCGUGGAUAUGGCACGCAAGUUUCUACCGGGCACCGUAAAUGUCCGACUGGAGCCGUUCGGGCGGCUAUAAACAGACCUCAGGCCCGAAGCGUGGCGGCACCUGCCGCCGGUGGUAAAAAAGAUCGGAAGAGCACACGUCU", "aptazyme ON/OFF ratio": 1.04}
{"variant": "GGGUCGGACAGAGAUAAUCGCGUGGAUAUGGCACGCAAGUUUCUACCGGGCACCGUAAAUGUCCGACUGGAGCCGUUCGGGCGGCUAUAAACAGACCUCAGGCCCGAAGCGUGGCGGCACCUGCCGCCGGUGGUAAAAAAGAUCGGAAGAGCACACGUCU", "aptazyme ON/OFF ratio": 1.05}
{"variant": "GGGUCGGACACUGAUAAUCGCGUGGAUAUGGCACGCAAGUUUCUACCGGGCACCGUAAAUGUCCGACUGGAGCCGUUCGGGCGGCUAUAAACAGACCUCAGGCCCGAAGCGUGGCGGCACCUGCCGCCGGUGGUAAAAAAGAUCGGAAGAGCACACGUCU", "aptazyme ON/OFF ratio": 1.06}
{"variant": "GGGUCGGACACUUAUAAUCGCGUGGAUAUGGCACGCAAGUUUCUACCGGGCACCGUAAAUGUCCGACUGGAGCCGUUCGGGCGGCUAUAAACAGACCUCAGGCCCGAAGCGUGGCGGCACCUGCCGCCGGUGGUAAAAAAGAUCGGAAGAGCACACGUCU", "aptazyme ON/OFF ratio": 1.04}
{"variant": "GGGUCGGACACUAAUAAUCGCGUGGAUAUGGCACGCAAGUUUCUACCGGGCACCGUAAAUGUCCGACUGGAGCCGUUCGGGCGGCUAUAAACAGACCUCAGGCCCGAAGCGUGGCGGCACCUGCCGCCGGUGGUAAAAAAGAUCGGAAGAGCACACGUCU", "aptazyme ON/OFF ratio": 1.03}
{"variant": "GGGUCGGACAGACAUAAUCGCGUGGAUAUGGCACGCAAGUUUCUACCGGGCACCGUAAAUGUCCGACUGGAGCCGUUCGGGCGGCUAUAAACAGACCUCAGGCCCGAAGCGUGGCGGCACCUGCCGCCGGUGGUAAAAAAGAUCGGAAGAGCACACGUCU", "aptazyme ON/OFF ratio": 1.02}
{"variant": "GGGUCGGACAGUCAUAAUCGCGUGGAUAUGGCACGCAAGUUUCUACCGGGCACCGUAAAUGUCCGACUGGAGCCGUUCGGGCGGCUAUAAACAGACCUCAGGCCCGAAGCGUGGCGGCACCUGCCGCCGGUGGUAAAAAAGAUCGGAAGAGCACACGUCU", "aptazyme ON/OFF ratio": 1.03}
{"variant": "GGGUCGGACAGGCAUAAUCGCGUGGAUAUGGCACGCAAGUUUCUACCGGGCACCGUAAAUGUCCGACUGGAGCCGUUCGGGCGGCUAUAAACAGACCUCAGGCCCGAAGCGUGGCGGCACCUGCCGCCGGUGGUAAAAAAGAUCGGAAGAGCACACGUCU", "aptazyme ON/OFF ratio": 1.03}
{"variant": "GGGUCGGACCUGAAUAAUCGCGUGGAUAUGGCACGCAAGUUUCUACCGGGCACCGUAAAUGUCCGACUGGAGCCGUUCGGGCGGCUAUAAACAGACCUCAGGCCCGAAGCGUGGCGGCACCUGCCGCCGGUGGUAAAAAAGAUCGGAAGAGCACACGUCU", "aptazyme ON/OFF ratio": 1.14}
{"variant": "GGGUCGGACCUGCAUAAUCGCGUGGAUAUGGCACGCAAGUUUCUACCGGGCACCGUAAAUGUCCGACUGGAGCCGUUCGGGCGGCUAUAAACAGACCUCAGGCCCGAAGCGUGGCGGCACCUGCCGCCGGUGGUAAAAAAGAUCGGAAGAGCACACGUCU", "aptazyme ON/OFF ratio": 1.07}
{"variant": "GGGUCGGACCUACAUAAUCGCGUGGAUAUGGCACGCAAGUUUCUACCGGGCACCGUAAAUGUCCGACUGGAGCCGUUCGGGCGGCUAUAAACAGACCUCAGGCCCGAAGCGUGGCGGCACCUGCCGCCGGUGGUAAAAAAGAUCGGAAGAGCACACGUCU", "aptazyme ON/OFF ratio": 1.02}
{"variant": "GGGUCGGACAGCCAUAAUCGCGUGGAUAUGGCACGCAAGUUUCUACCGGGCACCGUAAAUGUCCGACUGGAGCCGUUCGGGCGGCUAUAAACAGACCUCAGGCCCGAAGCGUGGCGGCACCUGCCGCCGGUGGUAAAAAAGAUCGGAAGAGCACACGUCU", "aptazyme ON/OFF ratio": 1.05}
{"variant": "GGGUCGGACACGGAUAAUCGCGUGGAUAUGGCACGCAAGUUUCUACCGGGCACCGUAAAUGUCCGACUGGAGCCGUUCGGGCGGCUAUAAACAGACCUCAGGCCCGAAGCGUGGCGGCACCUGCCGCCGGUGGUAAAAAAGAUCGGAAGAGCACACGUCU", "aptazyme ON/OFF ratio": 1.04}
{"variant": "GGGUCGGACACGUAUAAUCGCGUGGAUAUGGCACGCAAGUUUCUACCGGGCACCGUAAAUGUCCGACUGGAGCCGUUCGGGCGGCUAUAAACAGACCUCAGGCCCGAAGCGUGGCGGCACCUGCCGCCGGUGGUAAAAAAGAUCGGAAGAGCACACGUCU", "aptazyme ON/OFF ratio": 1.04}
{"variant": "GGGUCGGACACGAAUAAUCGCGUGGAUAUGGCACGCAAGUUUCUACCGGGCACCGUAAAUGUCCGACUGGAGCCGUUCGGGCGGCUAUAAACAGACCUCAGGCCCGAAGCGUGGCGGCACCUGCCGCCGGUGGUAAAAAAGAUCGGAAGAGCACACGUCU", "aptazyme ON/OFF ratio": 1.04}
{"variant": "GGGUCGGACAGGUAUAAUCGCGUGGAUAUGGCACGCAAGUUUCUACCGGGCACCGUAAAUGUCCGACUGGAGCCGUUCGGGCGGCUAUAAACAGACCUCAGGCCCGAAGCGUGGCGGCACCUGCCGCCGGUGGUAAAAAAGAUCGGAAGAGCACACGUCU", "aptazyme ON/OFF ratio": 1.04}
{"variant": "GGGUCGGACAGGGAUAAUCGCGUGGAUAUGGCACGCAAGUUUCUACCGGGCACCGUAAAUGUCCGACUGGAGCCGUUCGGGCGGCUAUAAACAGACCUCAGGCCCGAAGCGUGGCGGCACCUGCCGCCGGUGGUAAAAAAGAUCGGAAGAGCACACGUCU", "aptazyme ON/OFF ratio": 1.03}
{"variant": "GGGUCGGACAGGAAUAAUCGCGUGGAUAUGGCACGCAAGUUUCUACCGGGCACCGUAAAUGUCCGACUGGAGCCGUUCGGGCGGCUAUAAACAGACCUCAGGCCCGAAGCGUGGCGGCACCUGCCGCCGGUGGUAAAAAAGAUCGGAAGAGCACACGUCU", "aptazyme ON/OFF ratio": 1.05}
{"variant": "GGGUCGGACACAGAUAAUCGCGUGGAUAUGGCACGCAAGUUUCUACCGGGCACCGUAAAUGUCCGACUGGAGCCGUUCGGGCGGCUAUAAACAGACCUCAGGCCCGAAGCGUGGCGGCACCUGCCGCCGGUGGUAAAAAAGAUCGGAAGAGCACACGUCU", "aptazyme ON/OFF ratio": 1.01}
{"variant": "GGGUCGGACACAUAUAAUCGCGUGGAUAUGGCACGCAAGUUUCUACCGGGCACCGUAAAUGUCCGACUGGAGCCGUUCGGGCGGCUAUAAACAGACCUCAGGCCCGAAGCGUGGCGGCACCUGCCGCCGGUGGUAAAAAAGAUCGGAAGAGCACACGUCU", "aptazyme ON/OFF ratio": 1.03}
{"variant": "GGGUCGGACACCGAUAAUCGCGUGGAUAUGGCACGCAAGUUUCUACCGGGCACCGUAAAUGUCCGACUGGAGCCGUUCGGGCGGCUAUAAACAGACCUCAGGCCCGAAGCGUGGCGGCACCUGCCGCCGGUGGUAAAAAAGAUCGGAAGAGCACACGUCU", "aptazyme ON/OFF ratio": 1.04}
{"variant": "GGGUCGGACACCUAUAAUCGCGUGGAUAUGGCACGCAAGUUUCUACCGGGCACCGUAAAUGUCCGACUGGAGCCGUUCGGGCGGCUAUAAACAGACCUCAGGCCCGAAGCGUGGCGGCACCUGCCGCCGGUGGUAAAAAAGAUCGGAAGAGCACACGUCU", "aptazyme ON/OFF ratio": 1.04}
{"variant": "GGGUCGGACACCAAUAAUCGCGUGGAUAUGGCACGCAAGUUUCUACCGGGCACCGUAAAUGUCCGACUGGAGCCGUUCGGGCGGCUAUAAACAGACCUCAGGCCCGAAGCGUGGCGGCACCUGCCGCCGGUGGUAAAAAAGAUCGGAAGAGCACACGUCU", "aptazyme ON/OFF ratio": 1.04}
{"variant": "GGGUCGGACAGCUAUAAUCGCGUGGAUAUGGCACGCAAGUUUCUACCGGGCACCGUAAAUGUCCGACUGGAGCCGUUCGGGCGGCUAUAAACAGACCUCAGGCCCGAAGCGUGGCGGCACCUGCCGCCGGUGGUAAAAAAGAUCGGAAGAGCACACGUCU", "aptazyme ON/OFF ratio": 1.02}
{"variant": "GGGUCGGACAGCGAUAAUCGCGUGGAUAUGGCACGCAAGUUUCUACCGGGCACCGUAAAUGUCCGACUGGAGCCGUUCGGGCGGCUAUAAACAGACCUCAGGCCCGAAGCGUGGCGGCACCUGCCGCCGGUGGUAAAAAAGAUCGGAAGAGCACACGUCU", "aptazyme ON/OFF ratio": 1.05}
{"variant": "GGGUCGGACAGCAAUAAUCGCGUGGAUAUGGCACGCAAGUUUCUACCGGGCACCGUAAAUGUCCGACUGGAGCCGUUCGGGCGGCUAUAAACAGACCUCAGGCCCGAAGCGUGGCGGCACCUGCCGCCGGUGGUAAAAAAGAUCGGAAGAGCACACGUCU", "aptazyme ON/OFF ratio": 1.02}
{"variant": "GGGUCGGACAGUUAUAAUCGCGUGGAUAUGGCACGCAAGUUUCUACCGGGCACCGUAAAUGUCCGACUGGAGCCGUUCGGGCGGCUAUAAACAGACCUCAGGCCCGAAGCGUGGCGGCACCUGCCGCCGGUGGUAAAAAAGAUCGGAAGAGCACACGUCU", "aptazyme ON/OFF ratio": 1.04}
{"variant": "GGGUCGGACAGUAAUAAUCGCGUGGAUAUGGCACGCAAGUUUCUACCGGGCACCGUAAAUGUCCGACUGGAGCCGUUCGGGCGGCUAUAAACAGACCUCAGGCCCGAAGCGUGGCGGCACCUGCCGCCGGUGGUAAAAAAGAUCGGAAGAGCACACGUCU", "aptazyme ON/OFF ratio": 1.02}
{"variant": "GGGUCGGACAGUGAUAAUCGCGUGGAUAUGGCACGCAAGUUUCUACCGGGCACCGUAAAUGUCCGACUGGAGCCGUUCGGGCGGCUAUAAACAGACCUCAGGCCCGAAGCGUGGCGGCACCUGCCGCCGGUGGUAAAAAAGAUCGGAAGAGCACACGUCU", "aptazyme ON/OFF ratio": 1.01}
{"variant": "GGGUCGGACCUAUAUAAUCGCGUGGAUAUGGCACGCAAGUUUCUACCGGGCACCGUAAAUGUCCGACUGGAGCCGUUCGGGCGGCUAUAAACAGACCUCAGGCCCGAAGCGUGGCGGCACCUGCCGCCGGUGGUAAAAAAGAUCGGAAGAGCACACGUCU", "aptazyme ON/OFF ratio": 1.01}
{"variant": "GGGUCGGACCUAAAUAAUCGCGUGGAUAUGGCACGCAAGUUUCUACCGGGCACCGUAAAUGUCCGACUGGAGCCGUUCGGGCGGCUAUAAACAGACCUCAGGCCCGAAGCGUGGCGGCACCUGCCGCCGGUGGUAAAAAAGAUCGGAAGAGCACACGUCU", "aptazyme ON/OFF ratio": 1.07}
{"variant": "GGGUCGGACCUAGAUAAUCGCGUGGAUAUGGCACGCAAGUUUCUACCGGGCACCGUAAAUGUCCGACUGGAGCCGUUCGGGCGGCUAUAAACAGACCUCAGGCCCGAAGCGUGGCGGCACCUGCCGCCGGUGGUAAAAAAGAUCGGAAGAGCACACGUCU", "aptazyme ON/OFF ratio": 1.03}
{"variant": "GGGUCGGACCUCCAUAAUCGCGUGGAUAUGGCACGCAAGUUUCUACCGGGCACCGUAAAUGUCCGACUGGAGCCGUUCGGGCGGCUAUAAACAGACCUCAGGCCCGAAGCGUGGCGGCACCUGCCGCCGGUGGUAAAAAAGAUCGGAAGAGCACACGUCU", "aptazyme ON/OFF ratio": 2.1}
